According to PMC2198872:

Target: actin (filamentous actin from chicken pectoralis) (chicken) (UniProt P68139)
Test: laser trap

| Substance | displacement duration (t on, time attached to actin) | displacement duration, step 1 of double step events | displacement duration, step 2 of double step events |
| --- | --- | --- | --- |
| M5HMM containing only bound calmodulin (from UniProt Q99104 1-1098; P0DP23 1-149) (complex) | 120 ms |  |  |
| M5HMM(tag) with calmodulin (from UniProt Q99104 1-1098; P0DP23 1-149) (complex) | 100 ms |  |  |
| baculovirus-expressed (-)insert isoform of smooth muscle myosin HMM (from UniProt P10587 1-1979) (complex) |  | 468 ms | 400 ms |
